This passage reports Kd results from PMC10968512, “Cry Toxins Use Multiple ATP-Binding Cassette Transporter Subfamily C Members as Low-Efficiency Receptors in Bombyx mori” (Biomolecules, 2024).

Test [1] deals with T1, Bombyx mori ABC transporter subfamily C member 1, BmABCC1-FLAG (Bombyx mori).
T1 construct: BmABCC1 (MRP1) of Bombyx mori, protein XP_012546136.1, cDNA XM_012690682.3 amplified from midgut cDNA; also called MRP1 (name in the NCBI)
Description: SPR; BIACORE; BmABCC immobilised on a CM5 sensor chip; toxins (or BSA) in PBST (PBS with 0.005% Tween 20) at 500 and/or 1000 nM; 120 s association, 240 s dissociation; fitted with two-state reaction models (BIAevaluation ver.4.1). As to conditions: both partners purified.

In test [2] the target is T2, Bombyx mori ABC transporter subfamily C member 4, BmABCC4-FLAG (Bombyx mori).
T2 construct: BmABCC4 (MRP4) of Bombyx mori, protein XP_021205339.2, cDNA XM_021349664.2 amplified from midgut cDNA; also called MRP4 (name in the NCBI)
T2 sequence (main, as listed by the source): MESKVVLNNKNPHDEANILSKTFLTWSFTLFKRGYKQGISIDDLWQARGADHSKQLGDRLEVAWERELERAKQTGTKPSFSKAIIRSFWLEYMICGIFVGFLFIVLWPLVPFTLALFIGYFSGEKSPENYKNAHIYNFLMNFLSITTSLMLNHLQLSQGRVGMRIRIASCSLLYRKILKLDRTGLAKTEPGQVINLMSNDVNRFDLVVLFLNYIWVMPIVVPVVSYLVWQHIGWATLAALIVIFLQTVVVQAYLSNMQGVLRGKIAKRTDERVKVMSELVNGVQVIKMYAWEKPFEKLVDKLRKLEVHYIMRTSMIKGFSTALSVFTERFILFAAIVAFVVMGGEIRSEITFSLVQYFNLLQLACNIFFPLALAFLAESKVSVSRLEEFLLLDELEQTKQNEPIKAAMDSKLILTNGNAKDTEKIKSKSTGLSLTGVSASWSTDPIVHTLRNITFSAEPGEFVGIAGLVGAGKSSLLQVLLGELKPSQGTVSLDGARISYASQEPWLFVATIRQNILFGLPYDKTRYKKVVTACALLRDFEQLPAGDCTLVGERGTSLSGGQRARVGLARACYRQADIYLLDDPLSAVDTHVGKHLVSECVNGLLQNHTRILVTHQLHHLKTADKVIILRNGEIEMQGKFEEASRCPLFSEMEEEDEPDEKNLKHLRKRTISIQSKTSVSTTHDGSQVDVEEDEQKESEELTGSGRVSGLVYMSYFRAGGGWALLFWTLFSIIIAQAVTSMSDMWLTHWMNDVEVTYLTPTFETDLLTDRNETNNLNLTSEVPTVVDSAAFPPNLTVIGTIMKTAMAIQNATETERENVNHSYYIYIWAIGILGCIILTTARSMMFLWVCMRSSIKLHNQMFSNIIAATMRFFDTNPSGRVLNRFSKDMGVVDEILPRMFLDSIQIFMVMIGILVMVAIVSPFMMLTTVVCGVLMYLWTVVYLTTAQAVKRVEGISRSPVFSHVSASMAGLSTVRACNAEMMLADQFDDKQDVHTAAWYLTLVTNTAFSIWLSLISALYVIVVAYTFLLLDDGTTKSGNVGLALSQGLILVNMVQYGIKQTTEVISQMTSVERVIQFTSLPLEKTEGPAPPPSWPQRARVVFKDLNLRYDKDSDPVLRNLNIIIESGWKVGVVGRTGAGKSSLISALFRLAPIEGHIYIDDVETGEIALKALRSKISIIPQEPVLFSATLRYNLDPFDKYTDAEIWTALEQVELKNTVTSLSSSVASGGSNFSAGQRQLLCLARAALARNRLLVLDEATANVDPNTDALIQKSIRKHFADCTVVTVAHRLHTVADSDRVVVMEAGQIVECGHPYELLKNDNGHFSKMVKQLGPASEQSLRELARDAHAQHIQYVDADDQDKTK
Described as above. As to conditions: both partners purified.

T1 sequence (main, as listed by the source): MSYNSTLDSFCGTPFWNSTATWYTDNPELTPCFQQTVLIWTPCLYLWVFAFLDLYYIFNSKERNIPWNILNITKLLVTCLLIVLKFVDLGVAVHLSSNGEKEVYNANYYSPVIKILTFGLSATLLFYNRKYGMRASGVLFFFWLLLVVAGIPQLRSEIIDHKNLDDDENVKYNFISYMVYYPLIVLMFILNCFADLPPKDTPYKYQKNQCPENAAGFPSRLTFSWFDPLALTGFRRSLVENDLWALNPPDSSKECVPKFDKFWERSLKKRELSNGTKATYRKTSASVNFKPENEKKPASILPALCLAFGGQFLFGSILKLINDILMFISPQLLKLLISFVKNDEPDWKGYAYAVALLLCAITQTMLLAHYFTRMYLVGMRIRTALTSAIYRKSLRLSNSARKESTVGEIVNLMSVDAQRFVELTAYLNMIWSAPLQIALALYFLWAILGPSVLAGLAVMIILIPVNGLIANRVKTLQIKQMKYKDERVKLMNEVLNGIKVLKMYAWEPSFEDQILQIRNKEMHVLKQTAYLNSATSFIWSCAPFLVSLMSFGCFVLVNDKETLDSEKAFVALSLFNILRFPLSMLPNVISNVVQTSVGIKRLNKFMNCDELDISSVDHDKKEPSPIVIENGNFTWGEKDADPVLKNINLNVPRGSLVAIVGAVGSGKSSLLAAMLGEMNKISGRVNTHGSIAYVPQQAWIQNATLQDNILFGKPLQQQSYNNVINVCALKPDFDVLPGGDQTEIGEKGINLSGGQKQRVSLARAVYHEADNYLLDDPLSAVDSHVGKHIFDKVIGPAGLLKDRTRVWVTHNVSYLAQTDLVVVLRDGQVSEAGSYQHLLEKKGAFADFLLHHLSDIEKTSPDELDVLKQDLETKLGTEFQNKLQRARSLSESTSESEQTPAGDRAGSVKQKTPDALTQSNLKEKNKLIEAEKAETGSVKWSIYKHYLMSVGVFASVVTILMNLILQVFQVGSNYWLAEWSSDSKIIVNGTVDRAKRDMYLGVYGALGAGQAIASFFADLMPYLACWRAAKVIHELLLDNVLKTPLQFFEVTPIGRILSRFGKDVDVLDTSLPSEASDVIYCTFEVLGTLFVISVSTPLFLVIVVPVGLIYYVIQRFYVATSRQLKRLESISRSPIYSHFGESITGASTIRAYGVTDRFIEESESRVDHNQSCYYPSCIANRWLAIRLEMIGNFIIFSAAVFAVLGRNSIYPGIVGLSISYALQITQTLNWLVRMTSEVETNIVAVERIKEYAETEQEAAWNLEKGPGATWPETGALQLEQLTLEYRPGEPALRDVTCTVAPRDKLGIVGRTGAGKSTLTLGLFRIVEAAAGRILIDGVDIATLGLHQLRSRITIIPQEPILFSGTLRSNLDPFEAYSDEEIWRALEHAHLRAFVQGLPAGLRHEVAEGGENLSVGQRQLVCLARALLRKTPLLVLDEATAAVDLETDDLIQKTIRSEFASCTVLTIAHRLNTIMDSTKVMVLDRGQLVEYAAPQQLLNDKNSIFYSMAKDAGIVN

B1: Cry1Aa toxin (trypsin-activated) (domain or fragment)
chain: not shown
As for B1, the values for the dissociation constant (Kd) in test [1] and in test [2] were 46100 nM and 267 nM, respectively.

B2: Cry8Ca toxin (trypsin-activated) (domain or fragment)
chain: ISAQDAVGTGIDIVSTIISGLGIPVLGEVFSILGSLIGLLWPSNNENVWQIFMNRVEELIDQKILDSVRSRAIADLANSRIAVEYYQNALEDWRKNPHSTRSAALVKERFGNAEAILRTNMGSFSQTNYETPLLPTYAQAASLHLLVMRDVQIYGKEWGYPQNDIDLFYKEQVSYTARYSDHCVQWYNAGLNKLRGTGAKQWVDYNRFRREMNVMVLDLVALFPNYDARIYPLETNAELTREIFTDPVGSYVTGQSSTLISWYDMIPAALPSFSTLENLLRKPDFFTLLQEIRMYTSFRQNGTIEYYNYWGGQRLTLSYIYGSSFNKYSGVLAGAEDIIPVGQNDIYRVVWTYIGRYTNSLLGVNPVTFYFSNNTQKTYSKPKQFAGGIKTIDSGEELTYENYQSYSHRVSYITSFEIKSTGGTVLGVVPIFGWTHSSASRNNFIYATKISQIPINKASRTSGGAVWNFQEGLYNGGPVMKLSGSGSQVINLRVATDAKGASQRYRIRIRYASDRAGKFTISSRSPENPATYSASIAYTNTMSTNASLTYSTFAYAESGPINLGISGSSRTFDISITKEAGAANLYIDRIEF
For the molecule B2, the figures for the dissociation constant Kd in test [1] and in test [2] were 34.8 nM and 61.7 nM, respectively.

B3: Cry1Da toxin (trypsin-activated) (domain or fragment)
chain: ETGNTVADISLGLINFLYSNFVPGGGFIVGLLELIWGFIGPSQWDIFLAQIEQLISQRIEEFARNQAISRLEGLSNLYKVYVRAFSDWEKDPTNPALREEMRIQFNDMNSALITAIPLFRVQNYEVALLSVYVQAANLHLSILRDVSVFGERWGYDTATINNRYSDLTSLIHVYTNHCVDTYNQGLRRLEGRFLSDWIVYNRFRRQLTISVLDIVAFFPNYDIRTYPIQTATQLTREVYLDLPFINENLSPAASYPTFSAAESAIIRSPHLVDFLNSFTIYTDSLARYAYWGGHLVNSFRTGTTTNLIRSPLYGREGNTERPVTITASPSVPIFRTLSYITGLDNSNPVAGIEGVEFQNTISRSIYRKSGPIDSFSELPPQDASVSPAIGYSHRLCHATFLERISGPRIAGTVFSWTHRSASPTNEVSPSRITQIPWVKAHTLASGASVIKGPGFTGGDILTRNSMGELGTLRVTFTGRLPQSYYIRFRYASVANRSGTFRYSQPPSYGISFPKTMDAGEPLTSRSFAHTTLFTPITFSRAQEEFDLYIQSGVYIDRIEFIPVTAT
Turning to B3, the Kd in test [1] is 415 nM; in test [2], 63.7 nM.

B4: Cry9Aa toxin (trypsin-activated) (domain or fragment)
chain: YPLANNPYSSALNLNSCQNSSILNWINIIGDAAKEAVSIGTTIVSLITAPSLTGLISIVYDLIGKVLGGSSGQSISDLSICDLLSIIDLRVSQSVLNDGIADFNGSVLLYRNYLEALDSWNKNPNSASAEELRTRFRIADSEFDRILTRGSLTNGGSLARQNAQILLLPSFASAAFFHLLLLRDATRYGTNWGLYNATPFINYQSKLVELIELYTDYCVHWYNRGFNELRQRGTSATAWLEFHRYRREMTLMVLDIVASFSSLDITNYPIETDFQLSRVIYTDPIGFVHRSSLRGESWFSFVNRANFSDLENAIPNPRPSWFLNNMIISTGSLTLPVSPSTDRARVWYGSRDRISPANSQFITELISGQHTTATQTILGRNIFRVDSQACNLNDTTYGVNRAVFYHDASEGSQRSVYEGYIRTTGIDNPRVQNINTYLPGENSDIPTPEDYTHILSTTINLTGGLRQVASNRRSSLVMYGWTHKSLARNNTINPDRITQIPLTKVDTRGTGVSYVNDPGFIGGALLQRTDHGSLGVLRVQFPLHLRQQYRIRVRYASTTNIRLSVNGSFGTISQNLPSTMRLGEDLRYGSFAIREFNTSIRPTASPDQIRLTIEPSFIRQEVYVDRIEFIPVNPT
Molecule B4 showed a Kd in test [1] of 1.89 nM.

As a reminder, the Kd is the concentration at which binding is half-saturated. Low readings indicate tighter binding, high ones weaker binding.
